Holding throughout (test): SPR
Assay [1] has as its target T1, dAPN-Y797H ectodomain, hFc-tagged (dog (Canis lupus familiaris), UniProt P79143 33-975, Y797H).
T1 sequence: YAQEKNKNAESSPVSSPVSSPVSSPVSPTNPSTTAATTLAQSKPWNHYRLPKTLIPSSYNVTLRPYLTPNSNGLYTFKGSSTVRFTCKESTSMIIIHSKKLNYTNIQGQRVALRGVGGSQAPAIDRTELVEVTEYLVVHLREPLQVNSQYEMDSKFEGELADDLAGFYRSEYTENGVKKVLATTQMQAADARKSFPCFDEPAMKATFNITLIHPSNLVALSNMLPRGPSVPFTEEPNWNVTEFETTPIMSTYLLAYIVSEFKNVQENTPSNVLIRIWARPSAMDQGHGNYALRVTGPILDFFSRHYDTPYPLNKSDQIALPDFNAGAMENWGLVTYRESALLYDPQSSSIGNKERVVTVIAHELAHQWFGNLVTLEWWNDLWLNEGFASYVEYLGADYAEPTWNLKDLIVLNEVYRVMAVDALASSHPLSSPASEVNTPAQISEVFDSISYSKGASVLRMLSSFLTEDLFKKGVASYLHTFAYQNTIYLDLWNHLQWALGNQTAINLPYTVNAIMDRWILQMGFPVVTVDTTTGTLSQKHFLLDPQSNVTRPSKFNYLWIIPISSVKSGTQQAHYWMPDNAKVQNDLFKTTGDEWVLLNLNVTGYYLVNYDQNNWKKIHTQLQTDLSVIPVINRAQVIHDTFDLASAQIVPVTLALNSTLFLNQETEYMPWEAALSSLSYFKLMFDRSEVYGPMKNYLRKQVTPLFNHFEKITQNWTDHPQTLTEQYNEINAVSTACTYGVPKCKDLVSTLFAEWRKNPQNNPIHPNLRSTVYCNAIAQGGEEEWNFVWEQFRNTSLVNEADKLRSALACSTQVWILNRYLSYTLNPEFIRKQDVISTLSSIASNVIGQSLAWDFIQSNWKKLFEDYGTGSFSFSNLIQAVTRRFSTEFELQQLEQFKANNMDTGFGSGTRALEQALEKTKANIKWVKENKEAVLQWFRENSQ

For assay [2], the target named is T2, dAPN-D750E ectodomain, hFc-tagged (dog (Canis lupus familiaris), UniProt P79143 33-975, D750E).
T2 sequence: T1 sequence with D718E, H765Y

Assay [3] has as its target giant panda aminopeptidase N ectodomain fused with the Fc domain of human IgG (giant panda (Ailuropoda melanoleuca)).
Assay [4] has as its target Arabian camel aminopeptidase N ectodomain fused with the Fc domain of human IgG (Arabian camel (Camelus dromedarius)).
In assay [5] the target is horse aminopeptidase N ectodomain fused with the Fc domain of human IgG (horse (Equus caballus)).
Assay [6] concerns the target red fox aminopeptidase N ectodomain fused with the Fc domain of human IgG (red fox (Vulpes vulpes)).

Numbering of substitutions follows the chain as printed.

B1: TGEV RBD (receptor-binding domain of the transmissible gastroenteritis coronavirus spike protein) (domain or fragment)
chain: TANLNNGFYPVSSSEVGLVNKSVVLLPSFYTHTIVNITIDLGMKRSGYGQPIASTLSNITLPMQDNNTDVYCIRSDQFSVYVHSTCKSSLWDNIFKRNCTDVLDATAVIKTGTCPFSFDKLNNYLTFNKFCLSLSPVGANCKFDVAARTRTNEQVVRSLYVIYEEGDNIVGVPSD
Take B1: the dissociation constant Kd in assay [1] was found to be 23.8 nM; in assay [2], 30.8 nM; in assay [3], 765 nM; in assay [4], 6.36 µM; in assay [5], 2350 nM; in assay [6], 462 nM.

For orientation: Kd means a measure of binding affinity in units of concentration.

The values above are taken from paper PMC11741606 (2025).
